Drawing on paper PMC8307404, “Crystal Structure-Guided Design of Bisubstrate Inhibitors and Photoluminescent Probes for Protein Kinases of the PIM Family” (Molecules, 2021), this text covers remaining activity for 5 compounds.

What all share (test): Kinase profiling (radiometric filter-binding)
Type in all cases: biochemical

Series [1] concerns the target MEKK1 (Homo sapiens, UniProt Q13233). Conditions: MEKK1, 1 µM inhibitor; read-out: Residual activity, %. Put shortly: (§1)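 Human kinases were tested in a radiometric filter-binding panel with ATP at or below each enzyme's KM. Inhibitors were present at a final concentration of 1 µM, and residual activity was reported as a percentage of the uninhibited control.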
For series [2], the target named is Lck (Homo sapiens, UniProt P06239). Conditions: 1 µM inhibitor, read-out: Residual activity, %. Put shortly:
as §1

Series [3] deals with PHK (Homo sapiens, UniProt Q16816). Conditions: 1 µM inhibitor, read-out: Residual activity, %. Put shortly: as §1
Chain of PHK (Q16816 whole entry): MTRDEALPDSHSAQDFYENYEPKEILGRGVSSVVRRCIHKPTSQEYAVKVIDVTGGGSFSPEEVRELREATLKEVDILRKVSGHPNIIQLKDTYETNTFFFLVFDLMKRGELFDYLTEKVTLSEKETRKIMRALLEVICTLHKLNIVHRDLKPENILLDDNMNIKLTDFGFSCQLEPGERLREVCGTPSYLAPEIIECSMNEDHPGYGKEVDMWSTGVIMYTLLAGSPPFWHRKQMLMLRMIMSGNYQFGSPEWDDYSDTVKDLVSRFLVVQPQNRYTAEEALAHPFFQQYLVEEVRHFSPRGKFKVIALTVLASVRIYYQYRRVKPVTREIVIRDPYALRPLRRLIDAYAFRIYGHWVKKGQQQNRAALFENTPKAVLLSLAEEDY
Series [4] concerns the target T1, LKB1 (Homo sapiens, UniProt Q15831).
T1 sequence (Q15831 1-433): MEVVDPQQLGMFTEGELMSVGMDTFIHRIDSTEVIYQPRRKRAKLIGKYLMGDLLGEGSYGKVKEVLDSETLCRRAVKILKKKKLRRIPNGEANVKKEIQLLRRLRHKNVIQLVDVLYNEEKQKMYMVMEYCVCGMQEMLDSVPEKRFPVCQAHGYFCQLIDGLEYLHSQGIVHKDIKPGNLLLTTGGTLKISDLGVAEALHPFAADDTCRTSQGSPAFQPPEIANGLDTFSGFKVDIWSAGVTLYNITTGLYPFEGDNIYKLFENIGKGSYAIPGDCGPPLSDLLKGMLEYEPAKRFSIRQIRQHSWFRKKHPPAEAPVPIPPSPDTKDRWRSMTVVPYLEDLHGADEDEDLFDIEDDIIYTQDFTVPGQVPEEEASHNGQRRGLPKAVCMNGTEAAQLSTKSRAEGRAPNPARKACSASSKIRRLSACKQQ
T1 sequence (Q7RTN6 1-431 partner): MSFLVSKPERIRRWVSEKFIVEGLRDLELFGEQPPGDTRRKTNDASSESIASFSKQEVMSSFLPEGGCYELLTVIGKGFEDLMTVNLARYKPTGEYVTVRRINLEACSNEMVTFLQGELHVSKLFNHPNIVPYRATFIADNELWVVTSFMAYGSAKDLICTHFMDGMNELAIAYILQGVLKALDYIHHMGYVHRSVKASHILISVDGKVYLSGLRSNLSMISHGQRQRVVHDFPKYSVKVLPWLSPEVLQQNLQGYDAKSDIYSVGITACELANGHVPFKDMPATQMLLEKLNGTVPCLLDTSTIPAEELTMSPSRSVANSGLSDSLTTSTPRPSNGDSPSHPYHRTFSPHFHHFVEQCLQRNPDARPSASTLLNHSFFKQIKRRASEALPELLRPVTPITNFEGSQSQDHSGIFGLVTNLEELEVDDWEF
T1 sequence (Q9Y376 1-341 partner): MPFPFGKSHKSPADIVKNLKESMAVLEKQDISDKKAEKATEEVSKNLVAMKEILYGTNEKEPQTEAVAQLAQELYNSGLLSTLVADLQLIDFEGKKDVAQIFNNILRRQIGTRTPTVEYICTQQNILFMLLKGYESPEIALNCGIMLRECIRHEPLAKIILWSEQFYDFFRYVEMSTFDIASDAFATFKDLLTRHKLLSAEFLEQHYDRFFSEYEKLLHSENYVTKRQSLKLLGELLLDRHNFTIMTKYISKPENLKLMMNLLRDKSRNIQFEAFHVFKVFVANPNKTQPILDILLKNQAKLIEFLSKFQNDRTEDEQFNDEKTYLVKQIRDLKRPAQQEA
To be noted: LKB1, 1 µM inhibitor; read-out: Residual activity, %. Put shortly: as §1

Series [5] has as its target T2, DYRK3 (Homo sapiens, UniProt O43781).
T2 sequence (O43781 1-588): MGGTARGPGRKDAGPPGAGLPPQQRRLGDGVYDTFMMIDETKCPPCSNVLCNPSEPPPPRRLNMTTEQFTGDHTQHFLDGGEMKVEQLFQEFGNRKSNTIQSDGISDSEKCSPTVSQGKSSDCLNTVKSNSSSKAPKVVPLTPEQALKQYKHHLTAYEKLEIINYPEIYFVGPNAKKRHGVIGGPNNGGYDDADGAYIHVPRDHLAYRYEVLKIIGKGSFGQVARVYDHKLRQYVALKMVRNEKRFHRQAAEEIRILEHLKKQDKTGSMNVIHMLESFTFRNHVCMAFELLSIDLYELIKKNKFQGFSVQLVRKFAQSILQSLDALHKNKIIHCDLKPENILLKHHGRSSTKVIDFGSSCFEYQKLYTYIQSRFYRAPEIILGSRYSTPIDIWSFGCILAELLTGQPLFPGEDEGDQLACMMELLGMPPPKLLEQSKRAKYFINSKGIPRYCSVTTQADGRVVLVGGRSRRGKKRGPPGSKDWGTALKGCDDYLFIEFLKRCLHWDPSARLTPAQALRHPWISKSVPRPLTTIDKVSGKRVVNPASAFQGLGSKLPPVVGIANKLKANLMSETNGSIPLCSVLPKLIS
To be noted: DYRK3, 1 µM inhibitor; read-out: Residual activity, %. The essentials: as §1

The target of series [6] is EPH-A2 (Homo sapiens, UniProt P29317). Conditions: EPH-A2, 1 µM inhibitor; read-out: Residual activity, %. Put shortly: as §1
Chain of EPH-A2 (P29317 24-976): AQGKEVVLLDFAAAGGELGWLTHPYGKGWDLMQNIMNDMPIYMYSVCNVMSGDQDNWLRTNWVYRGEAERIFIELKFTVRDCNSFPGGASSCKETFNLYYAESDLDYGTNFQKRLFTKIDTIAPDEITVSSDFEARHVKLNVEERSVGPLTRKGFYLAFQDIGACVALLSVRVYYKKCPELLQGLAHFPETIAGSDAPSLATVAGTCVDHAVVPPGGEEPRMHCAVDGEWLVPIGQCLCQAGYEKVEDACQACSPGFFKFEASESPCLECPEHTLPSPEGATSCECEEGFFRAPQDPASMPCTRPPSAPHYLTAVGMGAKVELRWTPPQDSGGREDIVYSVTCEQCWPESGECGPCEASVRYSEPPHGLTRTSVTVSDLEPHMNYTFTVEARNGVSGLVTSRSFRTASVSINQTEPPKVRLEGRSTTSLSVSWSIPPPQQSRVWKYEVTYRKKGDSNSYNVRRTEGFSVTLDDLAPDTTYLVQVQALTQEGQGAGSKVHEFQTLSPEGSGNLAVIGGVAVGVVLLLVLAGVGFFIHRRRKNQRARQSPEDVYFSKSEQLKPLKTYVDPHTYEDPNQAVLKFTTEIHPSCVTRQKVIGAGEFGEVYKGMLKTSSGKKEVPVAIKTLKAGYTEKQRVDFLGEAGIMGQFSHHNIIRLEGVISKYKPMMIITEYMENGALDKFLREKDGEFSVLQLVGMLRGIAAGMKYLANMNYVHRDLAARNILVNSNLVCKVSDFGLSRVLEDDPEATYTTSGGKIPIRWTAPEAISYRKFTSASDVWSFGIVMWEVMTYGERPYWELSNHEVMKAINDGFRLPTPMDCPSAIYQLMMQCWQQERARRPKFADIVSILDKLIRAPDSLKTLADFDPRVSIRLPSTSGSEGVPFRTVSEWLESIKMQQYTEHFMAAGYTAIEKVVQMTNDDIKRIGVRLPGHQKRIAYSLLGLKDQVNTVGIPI
Series [7] addresses T3, MST2 (Homo sapiens, UniProt Q13188).
T3 sequence (Q13188 1-491): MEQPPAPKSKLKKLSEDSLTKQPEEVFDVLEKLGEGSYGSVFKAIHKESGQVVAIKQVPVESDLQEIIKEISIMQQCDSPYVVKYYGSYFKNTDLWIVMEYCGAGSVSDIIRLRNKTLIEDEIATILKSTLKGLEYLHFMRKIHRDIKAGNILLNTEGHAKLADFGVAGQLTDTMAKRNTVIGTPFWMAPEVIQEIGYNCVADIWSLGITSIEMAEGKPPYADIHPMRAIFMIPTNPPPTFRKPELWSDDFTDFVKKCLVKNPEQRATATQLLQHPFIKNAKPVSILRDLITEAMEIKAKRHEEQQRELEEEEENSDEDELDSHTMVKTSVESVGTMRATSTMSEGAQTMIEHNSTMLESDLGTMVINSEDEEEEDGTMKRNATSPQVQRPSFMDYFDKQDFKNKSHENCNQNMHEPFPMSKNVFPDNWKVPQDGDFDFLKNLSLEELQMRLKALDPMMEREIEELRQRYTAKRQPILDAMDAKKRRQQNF
To be noted: MST2, 1 µM inhibitor; read-out: Residual activity, %. Put shortly: as §1

Series [8] concerns the target MST4 (Homo sapiens, UniProt Q9P289). To be noted: MST4, 1 µM inhibitor; read-out: Residual activity, %. Put shortly:
as §1

SMILES strings stand for the structures. Square brackets hold non-standard residues; d marks the D form. Peptide text beside a SMILES is read from it. * marks the point of attachment. X3 = O=C(CCCCCNCc1nc2c(sc3cc(Br)cnc32)c(=O)[nH]1)*

Chain of MEKK1 (Q13233 whole entry): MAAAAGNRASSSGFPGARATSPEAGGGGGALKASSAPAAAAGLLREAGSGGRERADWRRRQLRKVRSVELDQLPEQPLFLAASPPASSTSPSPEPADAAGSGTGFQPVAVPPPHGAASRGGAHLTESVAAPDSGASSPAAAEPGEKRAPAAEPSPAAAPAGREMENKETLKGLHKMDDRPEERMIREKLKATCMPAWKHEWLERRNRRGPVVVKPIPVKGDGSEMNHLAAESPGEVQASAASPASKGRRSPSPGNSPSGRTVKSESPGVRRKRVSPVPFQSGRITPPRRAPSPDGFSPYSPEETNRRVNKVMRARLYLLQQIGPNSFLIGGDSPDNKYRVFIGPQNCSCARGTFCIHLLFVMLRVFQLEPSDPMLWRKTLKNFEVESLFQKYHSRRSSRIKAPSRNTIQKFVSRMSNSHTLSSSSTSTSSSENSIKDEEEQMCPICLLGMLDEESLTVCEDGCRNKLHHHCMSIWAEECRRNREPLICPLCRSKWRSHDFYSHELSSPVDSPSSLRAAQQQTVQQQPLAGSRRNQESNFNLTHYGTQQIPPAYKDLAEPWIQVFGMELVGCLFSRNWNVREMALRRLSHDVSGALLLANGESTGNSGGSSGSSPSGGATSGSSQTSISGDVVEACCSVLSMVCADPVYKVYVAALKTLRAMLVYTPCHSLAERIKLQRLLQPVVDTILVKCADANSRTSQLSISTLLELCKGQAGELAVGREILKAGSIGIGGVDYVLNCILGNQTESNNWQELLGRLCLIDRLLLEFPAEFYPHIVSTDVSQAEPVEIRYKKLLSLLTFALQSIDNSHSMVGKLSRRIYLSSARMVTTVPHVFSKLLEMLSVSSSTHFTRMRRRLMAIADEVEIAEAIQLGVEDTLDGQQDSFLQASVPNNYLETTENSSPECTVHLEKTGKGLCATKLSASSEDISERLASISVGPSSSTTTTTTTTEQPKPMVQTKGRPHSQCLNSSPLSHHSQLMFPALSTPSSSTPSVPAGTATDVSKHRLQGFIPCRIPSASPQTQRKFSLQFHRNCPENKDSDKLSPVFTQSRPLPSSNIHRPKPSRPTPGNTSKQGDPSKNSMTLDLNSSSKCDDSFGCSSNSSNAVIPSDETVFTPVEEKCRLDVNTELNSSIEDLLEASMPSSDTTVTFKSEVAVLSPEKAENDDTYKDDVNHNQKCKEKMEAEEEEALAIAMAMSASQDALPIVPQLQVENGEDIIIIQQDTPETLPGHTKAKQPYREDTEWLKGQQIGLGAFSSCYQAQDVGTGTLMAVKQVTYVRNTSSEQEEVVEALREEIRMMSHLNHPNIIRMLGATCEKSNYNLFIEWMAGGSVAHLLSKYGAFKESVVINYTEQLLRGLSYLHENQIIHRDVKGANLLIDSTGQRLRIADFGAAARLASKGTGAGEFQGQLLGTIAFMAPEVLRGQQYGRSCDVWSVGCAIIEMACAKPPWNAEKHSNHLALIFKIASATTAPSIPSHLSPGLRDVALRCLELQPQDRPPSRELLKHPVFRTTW
Chain of Lck (P06239 whole entry): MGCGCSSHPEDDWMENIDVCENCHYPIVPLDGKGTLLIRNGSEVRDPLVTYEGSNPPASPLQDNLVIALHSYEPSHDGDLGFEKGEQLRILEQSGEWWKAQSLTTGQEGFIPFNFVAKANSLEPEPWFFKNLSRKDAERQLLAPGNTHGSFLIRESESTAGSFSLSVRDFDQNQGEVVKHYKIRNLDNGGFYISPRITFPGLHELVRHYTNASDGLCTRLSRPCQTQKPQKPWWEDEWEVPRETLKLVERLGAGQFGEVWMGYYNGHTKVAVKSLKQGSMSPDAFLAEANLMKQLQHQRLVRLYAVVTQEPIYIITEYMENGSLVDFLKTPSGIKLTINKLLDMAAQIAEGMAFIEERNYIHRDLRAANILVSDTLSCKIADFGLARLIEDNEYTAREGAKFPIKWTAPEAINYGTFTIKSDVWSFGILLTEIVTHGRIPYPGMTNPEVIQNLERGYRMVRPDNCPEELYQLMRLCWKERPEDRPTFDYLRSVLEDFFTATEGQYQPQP
Chain of MST4 (Q9P289 whole entry): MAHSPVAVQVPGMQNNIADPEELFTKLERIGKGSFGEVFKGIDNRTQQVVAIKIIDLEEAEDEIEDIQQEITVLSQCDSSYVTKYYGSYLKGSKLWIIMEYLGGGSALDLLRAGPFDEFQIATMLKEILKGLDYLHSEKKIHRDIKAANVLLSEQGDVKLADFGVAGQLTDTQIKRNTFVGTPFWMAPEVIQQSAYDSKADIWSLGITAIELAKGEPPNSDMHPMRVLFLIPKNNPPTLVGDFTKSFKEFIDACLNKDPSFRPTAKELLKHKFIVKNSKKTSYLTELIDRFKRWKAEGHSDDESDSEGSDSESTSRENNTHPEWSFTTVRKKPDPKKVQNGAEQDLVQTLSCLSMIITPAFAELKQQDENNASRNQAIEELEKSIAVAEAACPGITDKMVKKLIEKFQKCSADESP

Regarding `N=C(N)NCCC[C@@H](NC(=O)CCCCCNCc1nc2c(sc3cc(Br)cnc32)c(=O)[nH]1)C(=O)N[C@H](CCCNC(=N)N)C(=O)N[C@H](CCCNC(=N)N)C(=O)N[C@H](CCCNC(=N)N)C(=O)N[C@H](CCCNC(=N)N)C(=O)N[C@H](CCCNC(=N)N)C(=O)N[C@H](CCCCN)C(N)=O` [ARC-3126, BPTP-Ahx-(D-Arg)6-D-Lys-NH2] (X3-[dR][dR][dR][dR][dR][dR][dK]-NH2), the remaining activity at 1 µM was determined as 103 ± 2% in series [1]; 132 ± 28% in series [2]; 128 ± 10% in series [3]; 114 ± 11% in series [4]; 82 ± 1% in series [5]; 113 ± 13% in series [6]. The remaining activity at 1 µM in series [7] is 106 ± 6%; in series [8], 125 ± 22%.
Regarding `N=C(N)NCCC[C@@H](NC(=O)CNC(=O)[C@@H](CCCNC(=N)N)NC(=O)[C@@H](CCCNC(=N)N)NC(=O)CCCCCCCNCc1nc2c(sc3ccc(Br)cc32)c(=O)[nH]1)C(=O)N[C@H](CCCCN)C(N)=O` [Compound 2, BBTP-Aoc-(D-Arg)2-Gly-D-Arg-D-Lys-NH2], the remaining activity at 1 µM turned out to be 119 ± 5% in series [1]; 103 ± 18% in series [2]; 98 ± 4% in series [3]; 118 ± 4% in series [4]; 34 ± 2% in series [5]; 113 ± 10% in series [6]. The remaining activity at 1 µM is 128 ± 35% in series [7] and 121 ± 8% in series [8].
On to `N=C(N)NCCC[C@@H](NC(=O)CNC(=O)[C@@H](CCCNC(=N)N)NC(=O)[C@@H](CCCNC(=N)N)NC(=O)Cn1cc(CNCc2nc3c(sc4ccc(Br)cc43)c(=O)[nH]2)nn1)C(=O)N[C@H](CCCCN)C(N)=O` [Compound 3, BBTP-Amt-(D-Arg)2-Gly-D-Arg-D-Lys-NH2], for which the remaining activity at 1 µM worked out at 98 ± 2% in series [1]; 78 ± 6% in series [2]; 78 ± 6% in series [3]; 115 ± 13% in series [4]; 55 ± 4% in series [5]; 132 ± 6% in series [6]. In addition, the results for the remaining activity at 1 µM in series [7] and in series [8] were 84 ± 6% and 95 ± 32%, respectively.
With `N=C(N)NCCC[C@@H](NC(=O)CCCCCNC(=O)Cn1cnc2c(I)c(I)c(I)c(I)c21)C(=O)N[C@H](CCCNC(=N)N)C(=O)N[C@H](CCCNC(=N)N)C(=O)N[C@H](CCCNC(=N)N)C(=O)N[C@H](CCCNC(=N)N)C(=O)N[C@H](CCCNC(=N)N)C(=O)N[C@H](CCCCN)C(N)=O` [ARC-3125, TIBI-CH2-C(=O)-Ahx-(D-Arg)6-D-Lys-NH2], the remaining activity at 1 µM in series [1] was 77 ± 1%; in series [2], 226 ± 7%; in series [3] it was 104 ± 11%; in series [4] it was 49 ± 28%; in series [5] it was 22 ± 2%; in series [6] it was 108 ± 2%. The results for the remaining activity at 1 µM in series [7] and in series [8] were 73 ± 1% and 71 ± 4%, respectively.
Turning to `N=C(N)NCCC[C@@H](NC(=O)CNC(=O)[C@@H](CCCNC(=N)N)NC(=O)[C@@H](CCCNC(=N)N)NC(=O)CCCCCCCNCc1nc2c(sc3cc(Br)cnc32)c(=O)[nH]1)C(=O)N[C@H](CCCCN)C(N)=O` [Compound 1, BPTP-Aoc-(D-Arg)2-Gly-D-Arg-D-Lys-NH2], the remaining activity at 1 µM in series [1] was 108 ± 16%; in series [2], 94 ± 18%; in series [3] it was 109 ± 3%; in series [4], 107 ± 1%; in series [5] it was 43 ± 6%; in series [6] it was 116 ± 5%. Moreover, the remaining activity at 1 µM in series [7] turned out to be 115 ± 11%; in series [8], 143 ± 10%.
